Laboratory results as given in article PMC11260492.

Molecular target: RPA (native, unlabeled heterotrimer) (human, UniProt P27694;P15927;P35244 1-616;1-270;1-121)
Test: FRET equilibrium titration

RPA (native, unlabeled heterotrimer), sequence (P27694 whole entry, chain 1 of 3): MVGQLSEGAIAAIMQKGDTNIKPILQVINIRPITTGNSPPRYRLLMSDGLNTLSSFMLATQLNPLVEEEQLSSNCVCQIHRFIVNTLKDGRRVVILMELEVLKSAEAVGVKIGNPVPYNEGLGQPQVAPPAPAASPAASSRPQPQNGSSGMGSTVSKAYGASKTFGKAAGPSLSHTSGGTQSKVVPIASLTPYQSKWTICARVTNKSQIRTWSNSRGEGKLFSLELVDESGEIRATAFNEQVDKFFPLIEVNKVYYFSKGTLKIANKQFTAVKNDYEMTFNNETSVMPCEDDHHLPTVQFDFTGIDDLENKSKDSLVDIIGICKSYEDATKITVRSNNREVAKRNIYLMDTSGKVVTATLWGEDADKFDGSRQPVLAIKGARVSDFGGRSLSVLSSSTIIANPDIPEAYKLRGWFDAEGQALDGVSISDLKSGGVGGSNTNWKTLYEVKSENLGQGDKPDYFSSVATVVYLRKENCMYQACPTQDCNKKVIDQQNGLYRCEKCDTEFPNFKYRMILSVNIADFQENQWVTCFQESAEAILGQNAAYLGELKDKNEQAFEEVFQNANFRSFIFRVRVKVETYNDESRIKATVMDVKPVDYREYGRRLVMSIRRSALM
RPA (native, unlabeled heterotrimer), sequence (P15927 whole entry, chain 2 of 3): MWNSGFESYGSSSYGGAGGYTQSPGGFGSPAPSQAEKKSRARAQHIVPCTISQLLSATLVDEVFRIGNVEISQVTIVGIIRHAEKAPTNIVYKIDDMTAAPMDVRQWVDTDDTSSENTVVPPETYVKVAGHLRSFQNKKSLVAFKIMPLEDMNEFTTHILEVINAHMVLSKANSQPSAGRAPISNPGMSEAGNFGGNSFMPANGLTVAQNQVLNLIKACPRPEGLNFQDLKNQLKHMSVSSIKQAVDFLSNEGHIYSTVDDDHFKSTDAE
RPA (native, unlabeled heterotrimer), sequence (P35244 whole entry, chain 3 of 3): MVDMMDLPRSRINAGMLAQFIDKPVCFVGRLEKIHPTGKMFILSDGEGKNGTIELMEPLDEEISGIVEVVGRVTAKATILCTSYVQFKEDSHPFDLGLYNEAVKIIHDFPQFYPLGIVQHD

TTTTTTTTTTTTTTTTTTTTTTTTTTTTTT (ssDNA) [poly(dT)30-FRET]: binds.
